Data published in paper PMC5725467, “Elongated Hypocotyl 5-Homolog (HYH) Negatively Regulates Expression of the Ambient Temperature-Responsive MicroRNA Gene MIR169”.

Experiments:
[1] = molecular target: T1, HYH.2-His (HYH splice isoform 2) (Arabidopsis thaliana, UniProt Q8W191 1-149); assay: EMSA; 100 ng protein; EMSA: LightShift Chemiluminescent EMSA Kit (manufacturer's instructions), 100 ng HYH.2-His, room temperature 30 min, 8% native polyacrylamide gel; buffer, salt; conditions: protein: recombinant; tags: His (pET28a+); chain copies: 2; label: 5'-biotin; blunt
T1 sequence: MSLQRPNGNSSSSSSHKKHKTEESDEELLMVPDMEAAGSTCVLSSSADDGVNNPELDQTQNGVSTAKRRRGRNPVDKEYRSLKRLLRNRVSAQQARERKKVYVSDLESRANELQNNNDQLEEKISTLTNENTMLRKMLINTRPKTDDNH

[2] = molecular target: T1, HYH.2-His (HYH splice isoform 2); assay: competition; 100x, 400x, 1600x molar excess over labeled N1; gradual decrease of shift; EMSA: LightShift Chemiluminescent EMSA Kit (manufacturer's instructions), 100 ng HYH.2-His, room temperature 30 min, 8% native polyacrylamide gel; buffer, salt; conditions: protein: recombinant; tags: His (pET28a+); chain copies: 2; label: none; blunt

B1: miR169a G-box-like (G) (dsDNA)
DNA 1: TGTACGGCCACGCAAAAGTGACCTAC
DNA 2: GTAGGTCACTTTTGCGTGGCCGTACA
- binding result [1]: binds

B2: miR169a NC1 (dsDNA)
DNA 1: ATCTTCTGTTTAACAACATATG
DNA 2: CATATGTTGTTAAACAGAAGAT
- binding result [1]: no binding

B3: miR169a G-box-like, unlabeled competitor (dsDNA)
DNA 1: TGTACGGCCACGCAAAAGTGACCTAC
DNA 2: GTAGGTCACTTTTGCGTGGCCGTACA
- binding result [2]: binds
